The text below walks through data of publication PMC4992835, “Antibodies elicited by the first non-viral prophylactic cancer vaccine show tumor-specificity and immunotherapeutic potential” (Scientific Reports, 2016).

Assay [1] addresses T1, MUC1 100mer vaccine peptide (Homo sapiens, UniProt P15941).
T1 construct: 5 copies of the unglycosylated 20mer tandem repeat of the MUC1 VNTR region, human; 100 aa, 5 tandem repeats of 20 aa; unglycosylated; also called 100mer MUC1 peptide; MUC1 VNTR 100mer
The assay is described as follows: SPR; Biacore T200; Fab captured at low density (RU < 50) on a CM5 chip coated with anti-human Fab capture kit; serially diluted 100mer peptide as analyte; 'Steady State' in Table 1 in place of rate constants. The settings on record: both partners purified. (Surface plasmon resonance follows binding to a sensor surface in real time, without labels.)

Assay [2] concerns the target T1, MUC1 100mer vaccine peptide.
Target sequence in this assay (P15941 136-235): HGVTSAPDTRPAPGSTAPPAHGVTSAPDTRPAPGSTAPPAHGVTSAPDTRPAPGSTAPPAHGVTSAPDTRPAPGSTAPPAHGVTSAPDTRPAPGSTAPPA
For assay [3], the target named is T2, MUC1 VNTR 25mer peptide (Homo sapiens).
T2 construct: MUC1 VNTR, human; one repeat plus 5 amino acids from the next repeat; also called 25mer MUC1 peptide
The assay is described as follows: SPR; Biacore T200; whole IgG captured on a CM5 chip coated with anti-human IgG capture antibody; serially diluted 25mer peptide as analyte; 1:1 model. The settings on record: both partners purified.

The target in assay [4] is T1, MUC1 100mer vaccine peptide. Put plainly: SPR; Biacore T200; Fab captured at low density (RU < 50) on a CM5 chip coated with anti-human Fab capture kit; serially diluted 100mer peptide as analyte; kinetic analysis, 1:1 model. The settings on record: both partners purified.

T2 sequence (peptide, as listed by the source): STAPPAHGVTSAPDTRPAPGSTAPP

B1: H4K10 Fab (Fab, V domains shown)
VH: QLQLQESGPGLVKPSETLSLTCTVSGGSISSSRYYWGWIRQPPGKGLEWIGSIYYSGSTYYNPSLKSRVTISVDTSNNQFSLKLTSVTAADTAVYYCARLPESGGYSGWFDPWGQGTLVTVSS
VL: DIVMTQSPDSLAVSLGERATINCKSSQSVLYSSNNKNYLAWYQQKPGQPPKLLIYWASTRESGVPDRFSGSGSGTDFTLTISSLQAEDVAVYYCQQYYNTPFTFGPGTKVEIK
What is called Kd is a measure of binding affinity in units of concentration. The molecule B1 showed a Kd in assay [1] of 5310 nM.

B2: H4K11 Fab (Fab, V domains shown)
VH: QLQLQESGPGLVKPSETLSLTCTVSGGSISSSRYYWGWIRQPPGKGLEWIGSIYYSGSTYYNPSLKSRVTISVDTSNNQFSLKLTSVTAADTAVYYCARLPESGGYSGWFDPWGQGTLVTVSS
VL: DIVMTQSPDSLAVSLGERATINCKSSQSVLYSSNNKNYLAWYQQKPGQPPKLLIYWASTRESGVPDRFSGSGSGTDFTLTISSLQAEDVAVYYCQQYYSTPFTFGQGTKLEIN
Consider B2, for which the Kd in assay [1] came out at 15700 nM.

B3: H16K6 (antibody, V domains shown)
VH: QVQLVESGGGLVKPGGSLRLSCAASGFTFSDYYMSWIRQAPGKGLEWVSYISSSGTTKYYADSVKGRFTISRDNAKNSLYLQMNSLRAEDTAVYYCVRENLGYCSGGSCFYYYYMDVWGKGTTVTVSS
VL: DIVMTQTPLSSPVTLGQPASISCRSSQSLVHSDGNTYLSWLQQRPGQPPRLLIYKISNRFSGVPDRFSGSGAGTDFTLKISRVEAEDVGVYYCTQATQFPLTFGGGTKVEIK
As for B3, the binding result in assay [2] is given as “binds”.

B4: H19K15 whole IgG (antibody, V domains shown)
VH: QVQLVESGGGLVKPGGSLRLSCAASGFIFSDYYMSWIRQAPGKGLEWVSYISSSGTTKYYADSVKGRFTISRDNAKNSLYLQMNSLRAEDTAVYYCVREDIGYCSGGSCFYYYYMDVWGKGTTVTVSS
VL: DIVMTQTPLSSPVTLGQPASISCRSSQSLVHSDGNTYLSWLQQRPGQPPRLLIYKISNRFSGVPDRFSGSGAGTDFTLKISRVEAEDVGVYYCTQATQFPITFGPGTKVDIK
Usually kon stands for a measure of how fast the partners come together. A higher kon goes with faster complex formation. In turn, B4 gave a kon in assay [3] of 8600 M⁻¹ s⁻¹.

B5: H14K6 Fab (Fab, V domains shown)
VH: QVQLVESGGGLVKPGGSLRLSCAASGFTFSDYYMSWIRQAPGKGLEWVSYISSSGSTIYYADSVKGRFTISRDNAKNSLYLQMNSLRAEDTAVYYCARERIGYCSGGSCYYYYYMDVWGKGTTVTVSS
VL: not shown
As a reminder, the koff is the first-order rate constant of dissociation. Read a low koff as a long-lived complex. Consider B5, for which, in assay [4], binding was put at a Kd of 0.13 nM, the koff came to 0.000346 s⁻¹ and the kon was 2.67e+06 M⁻¹ s⁻¹.

B6: H19K15 Fab (Fab, V domains shown)
VH: QVQLVESGGGLVKPGGSLRLSCAASGFIFSDYYMSWIRQAPGKGLEWVSYISSSGTTKYYADSVKGRFTISRDNAKNSLYLQMNSLRAEDTAVYYCVREDIGYCSGGSCFYYYYMDVWGKGTTVTVSS
VL: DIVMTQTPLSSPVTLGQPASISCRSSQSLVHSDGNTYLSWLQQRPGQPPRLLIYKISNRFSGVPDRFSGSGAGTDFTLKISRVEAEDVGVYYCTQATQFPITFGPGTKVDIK
As to B6, in assay [4], the affinity, expressed as Kd, was 0.555 nM; the koff turned out to be 0.000453 s⁻¹; the kon came to 817000 M⁻¹ s⁻¹.

B7: H14K6 whole IgG (antibody, V domains shown)
VH: QVQLVESGGGLVKPGGSLRLSCAASGFTFSDYYMSWIRQAPGKGLEWVSYISSSGSTIYYADSVKGRFTISRDNAKNSLYLQMNSLRAEDTAVYYCARERIGYCSGGSCYYYYYMDVWGKGTTVTVSS
VL: not shown
In assay [3], B7 returned a Kd of 27.2 nM, a koff of 0.00123 s⁻¹ and an on-rate constant (kon) of 45300 M⁻¹ s⁻¹.
